Measurements published in patent publication US12227579B2, “Bispecific antibody targeting IL-1R1 and NLPR3” (University of Ulster, priority 2018, dated 2025).

Experiments:
NLRP3 inflammasome = NLRP3 inflammasome (Homo sapiens, UniProt Q96P20); assay: NLRP3 assembly in vitro assay; details: among hybridoma clones
THP1 cells [1] = assay: IL-1β release from LPS/ATP-stimulated differentiated THP1 cells (ELISA); format: cell-based; details: PMA-differentiated THP1, LPS 1 μg/ml 3 h, Ab 0.0025-2.5 ng/ml (FIG. 33a) or 1 nM (FIG. 33b) 30 min, ATP 5 mM 1 h; supernatant ELISA
Protocol: THP1 cells, for FIGS. 33a and b, were cultured in 96-well plates at 100,000 cells/200 μl complete media. PMA (100 μg/ml for 72 hours) was used to differentiate THP-1 cells into macrophages. Following 24 hours of rest, differentiated THP1 cells were stimulated with LPS (1 μg/ml) for 3 hours, treated with MCC950 (1 μM) or the IL-1R1/NLRP3 Ab in a dose dependent fashion from 0.0025 ng/ml to 2.5 ng/ml for FIG. 33a or with IL-1R1/NLRP3 Ab (1 nM) for FIG. 33b or with IgG control antibody for 30 minutes, followed by ATP (5 mM) for 1 hour. IL-1 release was measured in the supernatant by ELISA.

THP1 cells [2] = assay: Caspase-1 activation in THP1 cells (FAM-FLICA staining, confocal); format: cell-based
Protocol: THP1 cells, for FIG. 34, were cultured in 96-well plates at 100,000 cells/200 ul complete media. PMA ([…] for 72 hours) was used to differentiated THP-1 cells into macrophages. Following 24 hours of rest, differentiated THP1 cells were stimulated with LPS (1 ug/ml) for 3 hours, treated with the IL-1R1/NLRP3 Ab (1 ug/ml) for 30 minutes, followed by ATP (5 mM) for 1 hour. Caspase-1 activation was assessed by staining cells with a non-cytotoxic Fluorescent Labelled Inhibitor of Caspase-1 (FAM-FLICA) and DAPI (nuclear stain). Cells were treated with LPS alone (negative control), LPS+ATP (positive control), mouse IgG2a (1 ug/ml, Ab control), or IL-1 r/NLRP3 bi-specific Ab (1 ug/ml, experimental). Representative confocal images are shown for each group. Green=active caspae-1 and blue=Dapi/nuclear stain.
(§1) Internalization of Inflamab—see FIG. 35. THP1 cells, for FIG. 35, were cultured in 96-well plates at 100,000 cells/200 ul complete media. Differentiation of THP1 cells was induced by PMA (100 ug/ml for 72 hours). Following 24 hours of rest, differentiated THP1 cells were stimulated with LPS (1 ug/ml) for 3 hours, treated with a pHrodo red labelled IL-1 r/NLRP3 Ab (1 ug/ml) for 30 minutes, followed by ATP (5 mM) for 1 hour. The internalization of the Ab was tracked using a pHrodo red labelled bi-specific Ab that only fluoresces when internalized.

THP1 cells [3] = assay: Internalization of pHrodo red labelled bi-specific Ab in THP1 cells; format: cell-based; details: pHrodo red labelled Ab 1 ug/ml 30 min, LPS then ATP; confocal image
Protocol: as §1

[4] = tested on: microbead-induced mouse model of glaucoma; assay: Microbead-induced mouse model of glaucoma; format: in vivo
Protocol: In the current study, WT C57BL/6J mice are receiving a single intravitreal injection of Inflamab (final vitreous concentration of 2.5, 25, or 250 ng/ml) on Day 0, immediately preceding the injection of microbeads and mice receiving saline only (no beads) are serving as a non-glaucoma control. RGC function is currently being measured by pERG using a fully integrated ERG system for rodents (Celeris). Changes in pERG amplitude is being measured in mice that received microbeads only and compared to mice that received microbeads plus Inflamab (final vitreous concentration of 2.5, 25, and 250 ng/ml) or saline only (no beads) [FIG. 42]. […] Visual acuity using an optomotor reflex-based spatial frequency threshold test, as well as RGC and axon quantification, is performed to further corroborate the neuroprotective effect of Inflamab and including additional control groups (microbead-injected mice treated with the appropriate IgG control antibody).
RGC analysis in WT mice treated with the NLRP3 inhibitor MCC950—see FIG. 41. […]
RGC function in WT mice treated with the NLRP3 inhibitor InflaMab—see FIG. 42. […] RGC function was measured by pERG using a fully integrated ERG system for rodents (Celeris) and changes in pERG amplitude was measured in mice that received microbeads only and compared to mice that received microbeads plus Inflamab (2.5, 25, and 250 ng/ml) or saline only (no beads). […]

Sequence of NLRP3 inflammasome (Q96P20 whole entry): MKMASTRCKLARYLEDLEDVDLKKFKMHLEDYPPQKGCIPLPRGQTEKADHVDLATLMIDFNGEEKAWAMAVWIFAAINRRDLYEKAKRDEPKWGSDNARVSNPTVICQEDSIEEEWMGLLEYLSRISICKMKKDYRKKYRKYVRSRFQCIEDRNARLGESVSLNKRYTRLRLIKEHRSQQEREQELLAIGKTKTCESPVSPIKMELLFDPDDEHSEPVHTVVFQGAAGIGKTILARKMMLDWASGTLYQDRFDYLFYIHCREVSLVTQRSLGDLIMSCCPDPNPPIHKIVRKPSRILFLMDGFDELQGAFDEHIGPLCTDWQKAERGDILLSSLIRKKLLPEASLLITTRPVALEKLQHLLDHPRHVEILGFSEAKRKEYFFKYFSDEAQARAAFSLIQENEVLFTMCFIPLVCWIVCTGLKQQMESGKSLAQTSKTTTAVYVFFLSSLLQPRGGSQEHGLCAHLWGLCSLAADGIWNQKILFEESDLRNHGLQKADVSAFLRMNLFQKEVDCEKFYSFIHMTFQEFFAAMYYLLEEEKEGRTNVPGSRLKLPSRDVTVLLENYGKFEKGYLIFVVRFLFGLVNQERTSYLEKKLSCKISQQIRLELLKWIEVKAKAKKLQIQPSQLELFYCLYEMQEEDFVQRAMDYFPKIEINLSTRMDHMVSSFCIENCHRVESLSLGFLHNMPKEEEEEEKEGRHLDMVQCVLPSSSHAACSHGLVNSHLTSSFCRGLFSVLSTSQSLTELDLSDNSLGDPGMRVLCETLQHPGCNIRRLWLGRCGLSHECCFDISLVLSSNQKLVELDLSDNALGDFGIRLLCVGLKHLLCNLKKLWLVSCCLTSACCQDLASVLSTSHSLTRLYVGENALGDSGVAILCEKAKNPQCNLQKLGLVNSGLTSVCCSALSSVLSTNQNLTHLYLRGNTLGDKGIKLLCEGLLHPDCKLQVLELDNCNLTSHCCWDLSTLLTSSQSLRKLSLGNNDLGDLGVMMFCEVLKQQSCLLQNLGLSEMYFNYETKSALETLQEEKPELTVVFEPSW

| Molecule | preventing NLRP3 assembly (NLRP3 inflammasome) | IL-1β release (THP1 cells [1]) | caspase-1 activation (THP1 cells [2]; differentiated THP1, LPS 1 ug/ml 3 h, Ab 1 ug/ml 30 min, ATP 5 mM 1 h, FAM-FLICA) | caspase-1 activation in THP1 cells that have internalized the Ab (THP1 cells [2]; pHrodo red labelled Ab 1 ug/ml, compared to THP1 cells that did not internalize the Ab) | internalization of the Ab (THP1 cells [3]) | death of RGCs ([4]; InflaMab, FIG. 42 title) | RGC function (pERG amplitude) ([4]; single intravitreal injection Day 0, final vitreous concentration 250 ng/ml, compared to microbeads only or Inflamab at 2.5 or 25 ng/ml, preliminary) |
| --- | --- | --- | --- | --- | --- | --- | --- |
| F226 7A7-1E1-2D5: anti-NLRP3 monoclonal antibody from hybridoma clone, sequenced and used in the bispecific (antibody, V domains shown) VH: EVQLVESGGGLVKPGGSLKLSCAASGFTFSDYYMYWVRQTPEKRLEWVATISDGGTYTYYPDSVKGRFTISRDNAKNNLYLQMNSLKSEDTAMYYCARGWVSTMVKLLSSFPYWGQGTLVTVSAAKTTPPSVYPLA VL: QAVVTQESALTTSPGETVTLTCRSSTGAVTTSNYANWVQEKPDHLFTGLIGGTNNRAPGVPARFSGSLIGDKAALTITGAQTEDEAIYFCALWYSNYWVFGGGTKLTVLGQPKSSPSVTLFPPSTEKLSL | most active | – | – | – | – | – | – |
| InflaMab: 210 kDa bispecific mouse antibody against IL-1R1 and NLRP3; light chain SEQ ID NO: 57, heavy chain SEQ ID NO: 59 (antibody) heavy: MGWTLVFLFLLSVTAGVHSQIQLVQSGPELRKPGETVRISCKASGYPFTTAGLQWVQKMSGKGLKWIGWMNTQSEVPKYAEEFKGRIAFSLETAASTAYLQINNLKTEDTATYFCAKSVYFNWRYFDVWGAGTTVTVSSAKTTAPSVYPLAPVCGDTTGSSVTLGCLVKGYFPEPVTLTWNSGSLSSGVHTFPAVLQSDLYTLSSSVTVTSSTWPSQSITCNVAHPASSTKVDKKIEPRGPTIKPCPPCKCPAPNLLGGPSVFIFPPKIKDVLMISLSPIVTCVVVDVSEDDPDVQISWFVNNVEVHTAQTQTHREDYNSTLRVVSALPIQHQDWMSGKEFKCKVNNKDLPAPIERTISKPKGSVRAPQVYVLPPPEEEMTKKQVTLTCMVTDFMPEDIYVEWTNNGKTELNYKNTEPVLDSDGSYFMYSKLRVEKKNWVERNSYSCSVVHEGLHNHHTTKSFSRTPGKGSAGGSGGDSEVQLVESGGGLVKPGGSLKLSCAASGFTFSDYYMYWVRQTPEKRLEWVATISDGGTYTYYPDSVKGRFTISRDNAKNNLYLQMNSLKSEDTAMYYCARGWVSTMVKLLSSFPYWGQGTLVTVSAGGGGSGGGGSGGGGSQAVVTQESALTTSPGETVTLTCRSSTGAVTTSNYANWVQEKPDHLFTGLIGGTNNRAPGVPARFSGSLIGDKAALTITGAQTEDEAIYFCALWYSNYWVFGGGTKLTVLGQPK light: MVSSAQFLGLLLLCFQGTRCDIVMTQSPATLSVTPGDRVSLSCRASQSISDYLSWYQQRSHESPRLIIKYASQSISGIPSRFSGSGSGSDFTLSINSVEPEDVGVYYCQHGHSFPLTFGSGTKLELKRADAAPTVSIFPPSSEQLTSGGASVVCFLNNFYPKDINVKWKIDGSERQNGVLNSWTDQDSKDSTYSMSSTLTLTKDEYERHNSYTCEATHKTSTSPIVKSFNRNEC | – | prevents IL-1β release | prevents caspase-1 activation | significant reduction of caspase-1 activation | internalization | prevents death of RGCs | recovery of RGC function |
